T1: human CD137L peptide 01 (human, biotinylated (position not given))
T1 construct: Synthesized as biotinylated peptide
T1 peptide: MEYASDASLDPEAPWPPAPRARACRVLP

T2: human CD137L peptide 02 (human, biotinylated (position not given))
T2 construct: Synthesized as biotinylated peptide; identical to peptide 01 except that it lacks the C-terminal 5 residues
T2 peptide: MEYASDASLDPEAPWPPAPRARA


Legend:
[1] = target: T1, human CD137L peptide 01; experiment: ELISA, IgG on CD137L peptide 01
[2] = target: T2, human CD137L peptide 02; experiment: ELISA, IgG on CD137L peptide 02
[3] = target: T3, full length human CD137L (human, UniProt P41273 1-254); experiment: immunofluorescence microscopy on fixed and permeabilized CHO-S-CD137L cells
T3 construct: also called CD137 ligand; human CD137 ligand
Procedure: FIGS. 3A-3C show immunofluorescence staining of TY23557, TY23561, the Reference-1 and isotype control antibodies at the indicated concentrations. The positive control CHO-S-CD137L cell line and the negative control CHO-S cells were washed, fixed and permabilized in a similar fashion as in immunohistochemistry (IHC), followed by analysis through fluorescence microscopy. (FIG. 3A) CHO-S-CD137L cells were stained with TY23557 or TY23561 (0.4 nM or 40 nM). (FIG. 3B) CHO-S-CD137L cells were stained with Reference-1 (6.66 nM) or negative isotype control (40 nM). (FIG. 3C) CHO-S cells were stained with TY23557 (40 nM), TY23561 (40 nM), negative isotype control (40 nM) or Reference-1 (6.66 nM).
The specificity of the antibodies were further confirmed with immunofluorescence analysis. To that end, CHO-S and CHO-S-CD137L cells were cultured on cover slides overnight. Cells were washed with DPBS followed by fixing and permeabilizing with 2% (v/v) paraformaldehyde and 0.1% Triton X 100. Then the cells were incubated with TY23557, TY23561, negative isotype control and Reference-1 (positive control) for one hour at room temperature. After washing by 0.05% PBST, PE Goat anti-mouse IgG Fc were added and staining for one hour at room temperature. The samples were analyzed with fluorescent microscopy.

| Binder | EC50 [1] [nM] | EC50 [2] [nM] | binding result [3] |
| --- | --- | --- | --- |
| TY23554 (antibody, V domains shown, Tested as IgG with Fc from mouse IgG2a, expressed in mammalian cells) VH: EVQLVESGGGLVQPGGSLRLSCAASGYSITSGYYWAWIRQAPGKGLEWIGIINPNRGSTKYAQKFQGRVTISRDNSKNTLYLQLNSLRAEDTAVYYCARDGWALSGGYYYYYGLDVWGQGTLVTVSS VL: DIQLTQSPSSLSASVGDRVTITCRASQDISSDLAWYQQKPGKAPKLLIYDASNLETGVPSRFSGSGSGTDFTLTISSLQPEDFATYYCQQYDAWPSTFGQGTKVEIKR | 3.13 | 1.59 | – |
| TY23555 (antibody, V domains shown, Tested as IgG with Fc from mouse IgG2a, expressed in mammalian cells) VH: EVQLVESGGGLVQPGGSLRLSCAASGYSISSGHYWAWIRQAPGKGLEWVSVISGSGGSTYYADSVKGRFTISRDNSKNTLYLQLNSLRAEDTAVYYCARYRSGAFDYWGQGTLVTVSS VL: DIQLTQSPSSLSASVGDRVTITCRASQSISRWLAWYQQKPGKAPKLLIYAASSLQSGVPSRFSGSGSGTDFTLTISSLQPEDFATYYCQQAYSIWTFGQGTKVEIKR | 28.5 | 12.3 | – |
| TY23556 (antibody, V domains shown, Tested as IgG with Fc from mouse IgG2a, expressed in mammalian cells) VH: EVQLVESGGGLVQPGGSLRLSCAASGYSITSGHYWGWIRQAPGKGLEWIGEIYHSGSTYYSPSLKSRVTISRDNSKNTLYLQLNSLRAEDTAVYYCTRGRYGLDYWGQGTLVTVSS VL: DIQLTQSPSSLSASVGDRVTITCSASSSVGYVQWYQQKPGKAPKLLIYDASNRATGIPSRFSGSGSGTDFTLTISSLQPEDFATYYCQQYGSAPITFGQGTKVEIKR | 0.66 | 0.48 | – |
| TY23559 (antibody, V domains shown, Tested as IgG with Fc from mouse IgG2a, expressed in mammalian cells) VH: EVQLVESGGGLVQPGGSLRLSCAASGYSISSGHYWAWIRQAPGKGLEWIGEIYHSGSTYYSPSLKSRVTISRDNSKNTLYLQLNSLRAEDTAVYYCTRGRYGLDYWGQGTLVTVSS VL: DIQLTQSPSSLSASVGDRVTITCSASSSVSYVQWYQQKPGKAPKLLIYDASNRATGIPSRFSGSGSGTDFTLTISSLQPEDFATYYCQQYSTNPLTFGQGTKVEIKR | 1.03 | 0.65 | – |
| TY23557 (antibody, V domains shown, Tested as IgG with Fc from mouse IgG2a, expressed in mammalian cells) VH: EVQLVESGGGLVQPGGSLRLSCAASGFTFTGYGIHWVRQAPGKGLEWVSAISGSGGSTYYADSVKGRFTISRDNSKNTLYLQLNSLRAEDTAVYYCARGAYYGGSYYFDYWGQGTLVTVSS VL: DIQLTQSPSSLSASVGDRVTITCRASESITSSYLAWYQQKPGKAPKLLIYDASSLESGVPSRFSGSGSGTDFTLTISSLQPEDFATYYCFQGSHYPPTFGQGTKVEIKR | 10.1 | 6.77 | binds |
| TY23558 (antibody, V domains shown, Tested as IgG with Fc from mouse IgG2a, expressed in mammalian cells; also called TV23558) VH: EVQLVESGGGLVQPGGSLRLSCAASGYSISSGHYWSWIRQAPGKGLEWIGEIYHSGSTYYSPSLKSRVTISRDNSKNTLYLQLNSLRAEDTAVYYCAREGSDSYGGPDPFDIWGQGTLVTVSS VL: DIQLTQSPSSLSASVGDRVTITCRARSTVSFPYLHWYQQKPGKAPKLLIYDASNLETGVPSRFSGSGSGTDFTLTISSLQPEDFATYYCQQSLEDPFTFGQGTKVEIKR | 3.84 | 1.51 | – |
| TY23561 (antibody, V domains shown, Tested as IgG with Fc from mouse IgG2a, expressed in mammalian cells) VH: EVQLVESGGGLVQPGGSLRLSCAASGFSLSTSGVGVSWIRQAPGKGLEWLALIDWAGDKYYSPSLKSRLTISRDNSKNTLYLQLNSLRAEDTAVYYCARYGYSSYALDYWGQGTLVTVSS VL: DIQLTQSPSSLSASVGDRVTITCRASQSVRGSYLAWYQQKPGKAPKLLIYAASTLQSGVPSRFSGSGSGTDFTLTISSLQPEDFATYYCQQYSSLWTFGQGTKVEIKR | 166 | 50 | – |
| TY23562 (antibody, V domains shown, Tested as IgG with Fc from mouse IgG2a, expressed in mammalian cells) VH: EVQLVESGGGLVQPGGSLRLSCAASGYSISSGYHWDWIRQAPGKGLEWIGRINPNRGSTKYAQKFQGRVTISRDNSKNTLYLQLNSLRAEDTAVYYCAREFGAYWGQGTLVTVSS VL: DIQLTQSPSSLSASVGDRVTITCRASQSVDFVGKSFLDWYQQKPGKAPKLLIYDASNLETGVPSRFSGSGSGTDFTLTISSLQPEDFATYYCQQRASWPLTFGQGTKVEIKR | 2.04 | 0.74 | – |

Reference: patent US20220089757A1 (ADAGENE PTE, published 2022)
